Measured values from patent US20230257746.

Biological target: T1, ZNF410 (Homo sapiens) (UniProt Q86VK4)
T1 sequence: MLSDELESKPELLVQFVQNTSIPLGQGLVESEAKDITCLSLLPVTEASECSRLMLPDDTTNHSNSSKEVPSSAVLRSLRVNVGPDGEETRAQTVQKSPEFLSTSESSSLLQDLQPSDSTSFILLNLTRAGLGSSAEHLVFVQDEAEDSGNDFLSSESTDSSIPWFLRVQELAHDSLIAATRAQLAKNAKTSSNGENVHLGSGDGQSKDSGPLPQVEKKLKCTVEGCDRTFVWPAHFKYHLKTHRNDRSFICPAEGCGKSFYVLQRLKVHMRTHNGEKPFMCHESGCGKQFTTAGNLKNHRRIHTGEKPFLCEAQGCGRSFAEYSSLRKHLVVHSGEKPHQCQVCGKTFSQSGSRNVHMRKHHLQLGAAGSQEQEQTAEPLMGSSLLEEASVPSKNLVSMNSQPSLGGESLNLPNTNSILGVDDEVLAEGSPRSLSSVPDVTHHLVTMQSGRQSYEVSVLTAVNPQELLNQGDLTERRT
Details: CUT&RUN with anti-HA in HUDEP-2 cells

Question: For CHD4 -6 kb enhancer (11 ZNF410 motifs), which binding signal (fold enrichment over IgG) is on record?
Answer: Its binding signal (fold enrichment over IgG) is 78.

Question: Which binding signal (fold enrichment over IgG) does the source give for CHD4 promoter (16 ZNF410 motifs) here?
Answer: The binding signal (fold enrichment over IgG) was 48.

Question: With NBPF19 intron site as the substance, how does the binding signal (fold enrichment over IgG) read?
Answer: The binding signal (fold enrichment over IgG) was 11.
